Test results published in publication PMC5799255, “Histone H5 is a potent Antimicrobial Agent and a template for novel Antimicrobial Peptides” (Scientific Reports, 2018).

How the values were obtained:
[1] = tested on: Listeria monocytogenes biofilms; test: MBEC assay (MBEC Assay Biofilm Inoculator), anti-biofilm activity; assay type: cell-based
Procedure: (§1) The anti-biofilm activity of histone H5 against P. aeruginosa and L. monocytogenes biofilms was assessed using the MBEC Assay Biofilm Inoculator (formerly the Calgary Biofilm Device (CBD)).
(§2) The preparation of the bacterial suspension was the same as described in the determination of the MIC and MBC, except that the bacterial suspension was adjusted to 10^5 CFUs/ml in LB broth (BHI broth for L. monocytogenes), not PBS. Wells of an MBEC™ Assay Biofilm Inoculator (Innovotech, Edmonton, AB), which contains pegs projecting downwards from the lid that serve as a surface for biofilm formation, were inoculated with 150 µL of bacterial suspension. The plate was incubated for 24 hours at 37 °C (110 rpm) for Pseudomonas aeruginosa bacterial biofilms or for 72 hours at 22 °C (60 rpm) for Listeria monocytogenes. Following incubation, planktonic cells were rinsed away by switching the 96-peg lid to a sterile 96-well microplate with 200 μL of sterile PBS per well. Pegs with established biofilms were incubated with 200 μL of histone H5 (dissolved in sterile water, pH 7.4), in wells of another sterile 96-well microplate containing serially two-fold dilutions of H5. Solutions of gentamicin and kanamycin served as positive controls for P. aeruginosa and L. monocytogenes, respectively, whereas sterile water (pH 7.4) served as a negative control. The device was incubated for 2 hours at 37 °C, 110 rpm for P. aeruginosa and at 22 °C, 60 rpm for L. monocytogenes. The 96-peg lid was then rinsed twice as described above and placed on a sterile 96-well microplate with 200 μL of LB broth (P. aeruginosa) or BHI broth (L. monocytogenes) per well. The microplate was sonicated for 10 minutes (P. aeruginosa) or 30 minutes (L. monocytogenes) in order to dislodge the biofilms from the pegs, after which the peg-lid was replaced with a sterile, normal lid. This microplate was incubated in the EON microplate reader overnight at 37 °C (206 oscillations/min). The EON microplate spectrophotometer with Gen5 data analysis software (BioTek, Winooski, VT, USA) was used to monitor the growth of bacteria by measuring the optical density at 600 nm every 30 minutes for 24 hours (P. aeruginosa) or 48 hours (L. monocytogenes). The lowest histone H5 concentration without visible bacterial growth was designated as the minimum biofilm eradication concentration (MBEC). Additionally, a standard curve for the number of viable bacteria in the inoculum versus bacterial growth lag time was generated, since every microplate additionally contained wells with serially ten-fold diluted bacteria obtained from the uninhibited biofilm control (sterile H2O). Bacterial growth inhibition for each histone H5 concentration tested was determined from this standard curve.

[2] = tested on: Pseudomonas aeruginosa biofilms; test: as above; assay type: cell-based; details: 2 h treatment at 37 °C; for biofilm growth inhibition (log inhibition): versus untreated control, three independent trials, P < 0.04
Procedure: as §1, §2

[3] = Circular dichroism (CD) secondary structure analysis, CDSSTR deconvolution; assay type: physicochemical; details: for α-helix: room temperature, average of two independent measurements
Procedure: The secondary structure of histone H5 and the three preparations of histone H5-derived peptide H5(61–90) was investigated in different environments: sterile H2O, pH 7.4 (aqueous environment) and 30 mM SDS (mimicking the negatively charged bacterial membrane environment), by circular dichroism (CD) spectroscopy. […] Deconvolution of the spectral data with the CDSSTR program estimated the secondary structural components (α-helix, β-sheet, turns, etc.) of each peptide (Table 8). […] However, the α-helical proportions in the presence of 30 mM SDS were 76.9%, 84.2%, 75.5% and 84.7% for histone H5, H5(61–90) V1, H5(61–90) V2 and H5(61–90) V3, respectively.
The protocol followed for circular dichroism spectrometry was based on previously described methods. Circular dichroism (CD) measurements were performed using a Jasco-715 Spectropolarimeter (Japan Spectroscopic Co., Tokyo), in which the wavelengths scanned were 185 to 260 nm, using a scan speed of 100 nm/min, a bandwidth and data pitch of 1.0 nm, with a quartz cell (0.1 cm path length). Histone H5 and histone H5-derived peptides were dissolved in sterile ddH2O, pH 7.4, or 30 mM SDS. The CD spectrum of sterile ddH2O (buffer of the samples) was used as the blank. Each CD spectrum represents the average of two independent measurements, each in quintuplicate. The CD data was converted to molar ellipticity [θ], which was calculated using the following equation:1 [θ]=CDinmdeg/(10×pathlengthincm×Cr) where Cr = number of residues x molar concentration (mol/L).
In order to estimate secondary structure content, averaged CD spectra for each peptide were analysed using the CDSSTR software. This program analyzes the molar ellipticity [θ] values at each wavelength and compares them with a library of known protein secondary structures (α-helix, β-sheet, turns, etc.) in order to estimate the percentages of the various secondary structural components of the tested peptide samples.

B1: histone H5: erythrocyte-specific linker histone purified from chicken erythrocytes, 190 amino acids (protein, UniProt P02259 2-190, looked up)
Histone H5: TESLVLSPAPAKPKRVKASRRSASHPTYSEMIAAAIRAEKSRGGSSRQSIQKYIKSHYKVGHNADLQIKLSIRRLLAAGVLKQTKGVGASGSFRLAKSDKAKRSPGKKKKAVRRSTSPKKAARPRKARSPAKKPKATARKARKKSRASPKKAKKPKTVKAKSRKASKAKKVKRSKPRAKSGARKSPKKK
With B1 the MBEC/MIC ratio ([1]; MBEC 19.1 ± 13.1 µg/mL versus planktonic MIC) was roughly 5 fold, the MBEC ([1]; biofilm grown 72 h at 22 °C on pegs, 2 h treatment at 22 °C, recovery growth OD600 48 h in BHI broth, mean ± SD, n = 3) was 19.1 ± 13.1 µg/mL and the “biofilm growth inhibition (log inhibition)” value ([2]; 32 µg/mL) was 0.7 ± 0.2 log inhibition. The “biofilm growth inhibition (log inhibition)” value ([2]; 64 µg/mL) was 1.6 ± 0.5 log inhibition, the “biofilm growth inhibition (log inhibition)” value ([2]; 128 µg/mL) was 2.3 ± 0.9 log inhibition and the MBEC ([2]; biofilm grown 24 h at 37 °C on pegs, recovery growth OD600 24 h in LB broth, highest concentration 128 µg/mL, n = 3) was greater than 128 µg/mL. For the same molecule, the “Random Coil” value ([3]; 30 mM SDS, CD) was 8.9%, the Turns ([3]; 30 mM SDS, CD) was 4.5% and the β-sheet ([3]; 30 mM SDS, CD) was 9.7%. The α-helix ([3]; 30 mM SDS, CD 185-260 nm) was 76.9%, the “Random Coil” value ([3]; sterile ddH2O pH 7.4, CD) was 32.2% and the Turns ([3]; sterile ddH2O pH 7.4, CD) was 22.4%. For the same molecule, the β-sheet ([3]; sterile ddH2O pH 7.4, CD) was 22.7% and the α-helix ([3]; sterile ddH2O pH 7.4, CD 185-260 nm) was 23.4%.
